Source: publication PMC5577655

Test system: NCCCC[C@H](N)C(=O)O
Assay: purified protein

## lysyl-tRNA synthetase 1 (LdLysRS-1) (Leishmania donovani)
  Km: 111 ± 15 µM
